Data on seven sequences can be found in the supplement of paper PMC5998384.

Data set [1] relates to HeLa Kyoto. As to the kind of experiment: thermal stability score vs G1/S (z-score of summed log2 fold changes over temperatures); higher = more thermally stable than in G1/S.
The test system of data set [2] is HeLa Kyoto. As to the kind of experiment: solubility in G1/S (NP-40 vs SDS abundance) (log2 ratio); higher = more soluble. The note with it: cell cycle stage: G1/S.
Data set [3] relates to HeLa Kyoto. Briefly: melting temperature (median over replicates), in situ; higher = more thermally stable.
The test system of data set [4] is HeLa Kyoto. As to the kind of experiment: solubility change mitosis vs G1/S (difference of NP-40 vs SDS log2 ratios) (log2 ratio difference); higher = more soluble in mitosis.
[5] abbreviates: cell cycle stage: early G1 (4.5 h after nocodazole release).
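Throughout, for melting temperature (median over replicates), in situ: HeLa Kyoto cells synchronized by double thymidine or nocodazole block, proteins quantified by TMT10plex mass spectrometry, three independent biological replicates.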
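Throughout, for solubility change mitosis vs G1/S (difference of NP-40 vs SDS log2 ratios): synchronized HeLa Kyoto cells (double thymidine block for G1/S, nocodazole release for mitosis), protein amounts in NP-40 versus SDS lysates quantified by mass spectrometry, three biological replicates.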
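Throughout, for solubility in G1/S (NP-40 vs SDS abundance): HeLa Kyoto cells arrested at G1/S by double thymidine block, proteins quantified by TMT10plex mass spectrometry in mild NP-40 versus SDS extracts, three biological replicates.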
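Throughout, for thermal stability score vs G1/S (z-score of summed log2 fold changes over temperatures): synchronized HeLa Kyoto cells, proteins quantified by TMT10plex mass spectrometry, three biological replicates, mitosis taken 0.5 h after nocodazole release, G1/S directly after double thymidine block.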

On to “MKGMSHEPKSPSLGMLSTATRTTATVNPLTPSPLNGALVPSGSPATSSALSAQAAPSSSFAAALRKLAKQAEEPRGSSLSSESSPVSSPATNHSSPASTPKRVPMGPIIVPPGGHSVPSTPPVVTIAPTKTVNGVWRSESRQDAGSRSSSGGRERLIVEPPLPQEKAGGPAIPSHLLSTPYPFGLSPSSVVQDSRFPPLNLQRPVHHVVPPSTVTEDYLRSFRPYHTTDDLRMSSLPPLGLDPATAAAYYHPSYLAPHPFPHPAFRMDDSYCLSALRSPFYPIPTPGSLPPLHPSAMHLHLSGVRYPPELSHSSLAALHSERMSGLSAERLQMDEELRREREREREREREREADREREKEREREREKEREQEKEREREKERERELERQREQRAREKELLAAKALEPSFLPVAELHGLRGHATEERGKPSEQLTPTRAEKLKDAGLQAPKPVQHPLHPVPTPHHTVPSLISNHGIFSLPSSSAATALLIQRTNEEEKWLARQRRLRQEKEDRQSQVSEFRQQVLEQHLDMGRPPVPAEAEHRPESTTRPGPNRHEPGGRDPPQHFGGPPPLISPKPQLHAAPTALWNPVSLMDNTLETRRAESHSLHSHPAAFEPSRQAAVPLVKVERVFCPEKAEEGPRKREPAPLDKYQPPPPPPREGGSLEHQPFLPGPGPFLAELEKSTQTILGQQRASLPQAATFGELSGPLKPGSPYRPPVPRAPDPAYIYDEFLQQRRRLVSKLDLEERRRREAQEKGYYYDLDDSYDESDEEEVRAHLRCVAEQPPLKLDTSSEKLEFLQLFGLTTQQQKEELVAQKRRKRRRMLRERSPSPPTIQSKRQTPSPRLALSTRYSPDEMNNSPNFEEKKKFLTIFNLTHISAEKRKDKERLVEMLRAMKQKALSAAVADSLTNSPRDSPAVSLSEPATQQASLDVEKPVGVAASLSDIPKAAEPGKLEQVRPQELSRVQELAPASGEKARLSEAPGGKKSLSMLHYIRGAAPKDIPVPLSHSTNGKSKPWEPFVAEEFAHQFHESVLQSTQKALQKHKGSVAVLSAEQNHKVDTSVHYNIPELQSSSRAPPPQHNGQQEPPTARKGPPTQELDRDSEEEEEEDDEDGEDEEEVPKRKWQGIEAVFEAYQEHIEEQNLERQVLQTQCRRLEARHYSLSLTAEQLSHSVAELRSQKQKMVSERERLQAELDHLRKCLALPAMHWPRGYLKGYPR [GSE1]”, for which the results for the thermal stability score in data set [1] (setting [5]) and in data set [1] (cell cycle stage: mitosis) were -0.121 and 0.454, respectively. Besides, the “solubility in G1/S (log2)” value in data set [2] came out at 0.0704. Besides, the melting temperature in data set [3] (cell cycle stage: G1/S) was found to be 50.8 °C; in data set [3] (cell cycle stage: mitosis), 49.9 °C. In addition, the “solubility change mitosis (log2)” value in data set [4] stood at 0.0661.
For “MKIFCSRANPTTGSVEWLEEDEHYDYHQEIARSSYADMLHDKDRNVKYYQGIRAAVSRVKDRGQKALVLDIGTGTGLLSMMAVTAGADFCYAIEVFKPMADAAVKIVEKNGFSDKIKVINKHSTEVTVGPEGDMPCRANILVTELFDTELIGEGALPSYEHAHRHLVEENCEAVPHRATVYAQLVESGRMWSWNKLFPIHVQTSLGEQVIVPPVDVESCPGAPSVCDIQLNQVSPADFTVLSDVLPMFSIDFSKQVSSSAACHSRRFEPLTSGRAQVVLSWWDIEMDPEGKIKCTMAPFWAHSDPEEMQWRDHWMQCVYFLPQEEPVVQGSALYLVAHHDDYCVWYSLQRTSPEKNERVRQMRPVCDCQAHLLWNRPRFGEINDQDRTDRYVQALRTVLKPDSVCLCVSDGSLLSVLAHHLGVEQVFTVESSAASHKLLRKIFKANHLEDKINIIEKRPELLTNEDLQGRKVSLLLGEPFFTTSLLPWHNLYFWYVRTAVDQHLGPGAMVMPQAASLHAVVVEFRDLWRIRSPCGDCEGFDVHIMDDMIKRALDFRESREAEPHPLWEYPCRSLSEPWQILTFDFQQPVPLQPLCAEGTVELRRPGQSHAAVLWMEYHLTPECTLSTGLLEPADPEGGCCWNPHCKQAVYFFSPAPDPRALLGGPRTVSYAVEFHPDTGDIIMEFRHADTPD [PRMT7]”, the thermal stability score in data set [1] (setting [5]) is 0.131; in data set [1] (cell cycle stage: mitosis), 1.01. Further, the “solubility in G1/S (log2)” value in data set [2] was -0.014. In addition, the melting temperature is 49.5 °C in data set [3] (cell cycle stage: G1/S) and 51 °C in data set [3] (cell cycle stage: mitosis). Moreover, the “solubility change mitosis (log2)” value in data set [4] is -0.0142.
For “MKKDVRILLVGEPRVGKTSLIMSLVSEEFPEEVPPRAEEITIPADVTPERVPTHIVDYSEAEQSDEQLHQEISQANVICIVYAVNNKHSIDKVTSRWIPLINERTDKDSRLPLILVGNKSDLVEYSSMETILPIMNQYTEIETCVECSAKNLKNISELFYYAQKAVLHPTGPLYCPEEKEMKPACIKALTRIFKISDQDNDGTLNDAELNFFQRICFNTPLAPQALEDVKNVVRKHISDGVADSGLTLKGFLFLHTLFIQRGRHETTWTVLRRFGYDDDLDLTPEYLFPLLKIPPDCTTELNHHAYLFLQSTFDKHDLDRDCALSPDELKDLFKVFPYIPWGPDVNNTVCTNERGWITYQGFLSQWTLTTYLDVQRCLEYLGYLGYSILTEQESQASAVTVTRDKKIDLQKKQTQRNVFRCNVIGVKNCGKSGVLQALLGRNLMRQKKIREDHKSYYAINTVYVYGQEKYLLLHDISESEFLTEAEIICDVVCLVYDVSNPKSFEYCARIFKQHFMDSRIPCLIVAAKSDLHEVKQEYSISPTDFCRKHKMPPPQAFTCNTADAPSKDIFVKLTTMAMYPHVTQADLKSSTFWLRASFGATVFAVLGFAMYKALLKQR [RHOT1]”, the thermal stability score in data set [1] (setting [5]) was -0.722; in data set [1] (cell cycle stage: mitosis) it was -1.26. In data set [2], the “solubility in G1/S (log2)” value was -0.379. Further, the values for the melting temperature in data set [3] (cell cycle stage: G1/S) and in data set [3] (cell cycle stage: mitosis) were 52.8 °C and 52.5 °C, respectively. Also, the “solubility change mitosis (log2)” value in data set [4] is -0.0628.
Turning to “MKKFFQEFKADIKFKSAGPGQKLKESVGEKAHKEKPNQPAPRPPRQGPTNEAQMAAAAALARLEQKQSRAWGPTSQDTIRNQVRKELQAEATVSGSPEAPGTNVVSEPREEGSAHLAVPGVYFTCPLTGATLRKDQRDACIKEAILLHFSTDPVAASIMKIYTFNKDQDRVKLGVDTIAKYLDNIHLHPEEEKYRKIKLQNKVFQERINCLEGTHEFFEAIGFQKVLLPAQDQEDPEEFYVLSETTLAQPQSLERHKEQLLAAEPVRAKLDRQRRVFQPSPLASQFELPGDFFNLTAEEIKREQRLRSEAVERLSVLRTKAMREKEEQRGLRKYNYTLLRVRLPDGCLLQGTFYARERLGAVYGFVREALQSDWLPFELLASGGQKLSEDENLALNECGLVPSALLTFSWDMAVLEDIKAAGAEPDSILKPELLSAIEKLL [UBXN6]”, the thermal stability score in data set [1] (setting [5]) and in data set [1] (cell cycle stage: mitosis) was 0.361 throughout. Also, the “solubility in G1/S (log2)” value in data set [2] is 0.337. The same sequence displayed a melting temperature in data set [3] (cell cycle stage: mitosis) of 47.8 °C. For the same sequence, in data set [4], the “solubility change mitosis (log2)” value was -0.0563.
For the sequence “MKKFSRMPKSEGGSGGGAAGGGAGGAGAGAGCGSGGSSVGVRVFAVGRHQVTLEESLAEGGFSTVFLVRTHGGIRCALKRMYVNNMPDLNVCKREITIMKELSGHKNIVGYLDCAVNSISDNVWEVLILMEYCRAGQVVNQMNKKLQTGFTEPEVLQIFCDTCEAVARLHQCKTPIIHRDLKVENILLNDGGNYVLCDFGSATNKFLNPQKDGVNVVEEEIKKYTTLSYRAPEMINLYGGKPITTKADIWALGCLLYKLCFFTLPFGESQVAICDGNFTIPDNSRYSRNIHCLIRFMLEPDPEHRPDIFQVSYFAFKFAKKDCPVSNINNSSIPSALPEPMTASEAAARKSQIKARITDTIGPTETSIAPRQRPKANSATTATPSVLTIQSSATPVKVLAPGEFGNHRPKGALRPGNGPEILLGQGPPQQPPQQHRVLQQLQQGDWRLQQLHLQHRHPHQQQQQQQQQQQQQQQQQQQQQQQQQQQHHHHHHHHLLQDAYMQQYQHATQQQQMLQQQFLMHSVYQPQPSASQYPTMMPQYQQAFFQQQMLAQHQPSQQQASPEYLTSPQEFSPALVSYTSSLPAQVGTIMDSSYSANRSVADKEAIANFTNQKNISNPPDMSGWNPFGEDNFSKLTEEELLDREFDLLRSNRLEERASSDKNVDSLSAPHNHPPEDPFGSVPFISHSGSPEKKAEHSSINQENGTANPIKNGKTSPASKDQRTGKKTSVQGQVQKGNDESESDFESDPPSPKSSEEEEQDDEEVLQGEQGDFNDDDTEPENLGHRPLLMDSEDEEEEEKHSSDSDYEQAKAKYSDMSSVYRDRSGSGPTQDLNTILLTSAQLSSDVAVETPKQEFDVFGAVPFFAVRAQQPQQEKNEKNLPQHRFPAAGLEQEEFDVFTKAPFSKKVNVQECHAVGPEAHTIPGYPKSVDVFGSTPFQPFLTSTSKSESNEDLFGLVPFDEITGSQQQKVKQRSLQKLSSRQRRTKQDMSKSNGKRHHGTPTSTKKTLKPTYRTPERARRHKKVGRRDSQSSNEFLTISDSKENISVALTDGKDRGNVLQPEESLLDPFGAKPFHSPDLSWHPPHQGLSDIRADHNTVLPGRPRQNSLHGSFHSADVLKMDDFGAVPFTELVVQSITPHQSQQSQPVELDPFGAAPFPSKQ [BMP2K]”, the figures for the thermal stability score in data set [1] (setting [5]) and in data set [1] (cell cycle stage: mitosis) were 0.793 and 0.398, respectively. The “solubility in G1/S (log2)” value in data set [2] was -0.292. The melting temperature worked out at 50.5 °C in data set [3] (cell cycle stage: G1/S) and 51.1 °C in data set [3] (cell cycle stage: mitosis). For the same sequence, the “solubility change mitosis (log2)” value in data set [4] is -0.0153.
Regarding “MKKQFNRMKQLANQTVGRAEKTEVLSEDLLQIERRLDTVRSICHHSHKRLVACFQGQHGTDAERRHKKLPLTALAQNMQEASTQLEDSLLGKMLETCGDAENQLALELSQHEVFVEKEIVDPLYGIAEVEIPNIQKQRKQLARLVLDWDSVRARWNQAHKSSGTNFQGLPSKIDTLKEEMDEAGNKVEQCKDQLAADMYNFMAKEGEYGKFFVTLLEAQADYHRKALAVLEKTLPEMRAHQDKWAEKPAFGTPLEEHLKRSGREIALPIEACVMLLLETGMKEEGLFRIGAGASKLKKLKAALDCSTSHLDEFYSDPHAVAGALKSYLRELPEPLMTFNLYEEWTQVASVQDQDKKLQDLWRTCQKLPPQNFVNFRYLIKFLAKLAQTSDVNKMTPSNIAIVLGPNLLWARNEGTLAEMAAATSVHVVAVIEPIIQHADWFFPEEVEFNVSEAFVPLTTPSSNHSFHTGNDSDSGTLERKRPASMAVMEGDLVKKESFGVKLMDFQAHRRGGTLNRKHISPAFQPPLPPTDGSTVVPAGPEPPPQSSRAESSSGGGTVPSSAGILEQGPSPGDGSPPKPKDPVSAAVPAPGRNNSQIASGQNQPQAAAGSHQLSMGQPHNAAGPSPHTLRRAVKKPAPAPPKPGNPPPGHPGGQSSSGTSQHPPSLSPKPPTRSPSPPTQHTGQPPGQPSAPSQLSAPRRYSSSLSPIQAPNHPPPQPPTQATPLMHTKPNSQGPPNPMALPSEHGLEQPSHTPPQTPTPPSTPPLGKQNPSLPAPQTLAGGNPETAQPHAGTLPRPRPVPKPRNRPSVPPPPQPPGVHSAGDSSLTNTAPTASKIVTDSNSRVSEPHRSIFPEMHSDSASKDVPGRILLDIDNDTESTAL [ARHGAP17]”, the thermal stability score in data set [1] (setting [5]) was 0.76; in data set [1] (cell cycle stage: mitosis), 2.7. Moreover, the “solubility in G1/S (log2)” value in data set [2] is 0.413. For the same sequence, the melting temperature was 48.2 °C in data set [3] (cell cycle stage: G1/S) and 49.1 °C in data set [3] (cell cycle stage: mitosis). Further, in data set [4], the “solubility change mitosis (log2)” value is -0.0286.
For “MKLLARALRLCEFGRQASSRRLVAGQGCVGPRRGCCAPVQVVGPRADLPPCGACITGRIMRPDDANVAGNVHGGTILKMIEEAGAIISTRHCNSQNGERCVAALARVERTDFLSPMCIGEVAHVSAEITYTSKHSVEVQVNVMSENILTGAKKLTNKATLWYVPLSLKNVDKVLEVPPVVYSRQEQEEEGRKRYEAQKLERMETKWRNGDIVQPVLNPEPNTVSYSQSSLIHLVGPSDCTLHGFVHGGVTMKLMDEVAGIVAARHCKTNIVTASVDAINFHDKIRKGCVITISGRMTFTSNKSMEIEVLVDADPVVDSSQKRYRAASAFFTYVSLSQEGRSLPVPQLVPETEDEKKRFEEGKGRYLQMKAKRQGHAEPQP [ACOT7]”, the values for the thermal stability score in data set [1] (setting [5]) and in data set [1] (cell cycle stage: mitosis) were -2.43 and -3.98, respectively. The “solubility in G1/S (log2)” value in data set [2] is 0.0352. Moreover, the melting temperature was determined as 58.9 °C in data set [3] (cell cycle stage: G1/S) and 59.2 °C in data set [3] (cell cycle stage: mitosis). Besides, the “solubility change mitosis (log2)” value in data set [4] was -0.0718.
